In EP1562972B1 (Facet Biotech Corporation, dated 2010):

B1: OST577-IgG2M3 wild-type antibody (antibody)
chain 1: QVQLVESGGGVVQPGRSLRLSCAASGFTFSRYGMHWVRQAPGKGLEWVAVISYDGSNKWYADSVKGRFTISRDNSKNTLFLQMHSLRAADTGVYFCAKDQLYFGSQSPGHYWGQGTLVTVSSASTKGPSVFPLAPCSRSTSESTAALGCLVKDYFPEPVTVSWNSGALTSGVHTFPAVLQSSGLYSLSSVVTVPSSNFGTQTYTCNVDHKPSNTKVDKTVERKCCVECPPCPAPPAAAPSVFLFPPKPKDTLMISRTPEVTCVVVDVSHEDPEVQFNWYVDGVEVHNAKTKPREEQFNSTFRVVSVLTVVHQDWLNGKEYKCKVSNKGLPAPIEKTISKTKGQPREPQVYTLPPSREEMTKNQVSLTCLVKGFYPSDIAVEWESNGQPENNYKTTPPMLDSDGSFFLYSKLTVDKSRWQQGNVFSCSVMHEALHNHYTQKSLSLSPSK
chain 2: SYVLTQPPSVSVAPGQTARITCGGDNIGSKSVNWFQQKPGQAPVLVVYDDNERPSGISERFSGSNSGNTATLTISRVEAGDEADYYCQVWDSSSDHVVFGGGTKLTVLGQPKAAPSVTLFPPSSEELQANKATLVCLISDFYPGAVTVAWKADSSPVKAGVETTTPSKQSNNKYAASSYLSLTPEQWKSHRSYSCQVTHEGSTVEKTVAPTECS
B2: OST577-IgG1 wild-type antibody (antibody)
chain 1: not shown
chain 2: B1 chain 2

What was measured:
[1] = biological target: T1, human neonatal Fc receptor (FcRn), recombinant GPI-linked, on NS0 cells (human, UniProt P55899 24-297; P61769 21-119); experiment: competition flow cytometry, NS0 cells with human FcRn, vs biotinylated HuEP5C7-IgG2M3, FBB pH 6.0
T1 construct: Expressed from vector pDL208 on the surface of NS0 cells; also called human FcRn; HuFcRn; not shown: human c-myc decapeptide flanked by linker peptides, then GPI linkage signal of human decay accelerating factor (vector p)

[2] = biological target: T1, human neonatal Fc receptor (FcRn), …; experiment: competition flow cytometry, NS0 cells with human FcRn, vs biotinylated HuEP5C7-IgG2M3, FSB pH 6.0
[3] = biological target: T1, human neonatal Fc receptor (FcRn), …; experiment: competition flow cytometry, NS0 cells with human FcRn, vs biotinylated OST577-IgG2M3, FBB pH 6.0
[4] = biological target: T1, human neonatal Fc receptor (FcRn), …; experiment: competition flow cytometry, NS0 cells with human FcRn, vs biotinylated OST577-IgG1, FBB pH 6.0
[5] = biological target: T1, human neonatal Fc receptor (FcRn), …; experiment: as above; remark: listed apart in the source
[6] = biological target: T2, rhesus neonatal Fc receptor (FcRn), recombinant GPI-linked, on NS0 cells (rhesus, UniProt H9Z6D2 24-297; Q6V7J5 21-119, GPI-linked at the C-terminus); experiment: competition flow cytometry, NS0 cells with rhesus FcRn, vs biotinylated OST577-IgG1, FBB pH 6.0
T2 construct: Expressed from vector pDL410 on the surface of NS0 cells; also called rhesus FcRn; RhFcRn; not shown: human c-myc decapeptide flanked by linker peptides, then GPI linkage signal of human decay accelerating factor (vector p)

Binder	IC50 [1]	Relative Binding [1]	IC50 [2]	Relative Binding [2]	IC50 [3]	Relative Binding [3]	IC50 [4]	Relative Binding [4]	IC50 [5]	Relative Binding [5]	IC50 [6]	Relative Binding [6]
B1	9.4 µg/mL	1 ratio (IC50 wild-type / IC50 mutant)	10.7 µg/mL	1 ratio (IC50 wild-type / IC50 mutant)	11.9 µg/mL	1 ratio (IC50 wild-type / IC50 mutant)	–	–	–	–	–	–
B2	–	–	–	–	–	–	13.9 µg/mL	1 ratio (IC50 wild-type / IC50 mutant)	10.3 µg/mL	1 ratio (IC50 wild-type / IC50 mutant)	8.86 µg/mL	1 ratio (IC50 wild-type / IC50 mutant)
